Assay results: PMC3625156, “Biochemical Characteristics of New Delhi Metallo-β-Lactamase-1 Show Unexpected Difference to Other MBLs” (PLoS ONE, 2013)

Legend:
[1] = biological target: T1, New Delhi metallo-β-lactamase-1 (NDM-1) (Klebsiella pneumoniae, UniProt C7C422); test: initial hydrolysis rate of […] substrate by purified enzyme at varied ZnSO4; format: biochemical
T1 construct: gene blaNDM-1; native (no fusion or tag) NDM-1

[2] = tested on: CO[C@@]1(NC(=O)Cc2cccs2)C(=O)N2C(C(=O)O)=C(COC(N)=O)CS[C@@H]21; test: purified protein; format: biochemical, Klebsiella pneumoniae; conditions: Zn2+
[3] = tested on: C[C@@H](O)[C@H]1C(=O)N2C(C(=O)[O-])=C(SC3Cn4cnc[n+]4C3)[C@H](C)[C@H]12; test: purified protein; format: biochemical, Klebsiella pneumoniae; conditions: Zn2+
[4] = tested on: CO/N=C(\C(=O)N[C@@H]1C(=O)N2C(C(=O)O)=C(COC(C)=O)CS[C@H]12)c1csc(N)n1; test: purified protein; format: biochemical, Klebsiella pneumoniae; conditions: Zn2+
[5] = tested on: CC1(C)S[C@@H]2[C@H](NC(=O)Cc3ccccc3)C(=O)N2[C@H]1C(=O)O; test: purified protein; format: biochemical, Klebsiella pneumoniae; conditions: Zn2+
[6] = tested on: CCN1CCN(C(=O)N[C@@H](C(=O)N[C@@H]2C(=O)N3[C@@H]2SC(C)(C)[C@@H]3C(=O)O)c2ccccc2)C(=O)C1=O; test: purified protein; format: biochemical, Klebsiella pneumoniae; conditions: Zn2+
[7] = tested on: CC(C)(O/N=C(\C(=O)N[C@@H]1C(=O)N2C(C(=O)[O-])=C(C[n+]3ccccc3)CS[C@H]12)c1csc(N)n1)C(=O)O; test: purified protein; format: biochemical, Klebsiella pneumoniae; conditions: Zn2+
[8] = tested on: C[C@@H](O)[C@H]1C(=O)N2C(C(=O)O)=C(S[C@@H]3CN[C@H](C(=O)N(C)C)C3)[C@H](C)[C@H]12; test: purified protein; format: biochemical, Klebsiella pneumoniae; conditions: Zn2+

T1 sequence (C7C422 29-270 limits assumed): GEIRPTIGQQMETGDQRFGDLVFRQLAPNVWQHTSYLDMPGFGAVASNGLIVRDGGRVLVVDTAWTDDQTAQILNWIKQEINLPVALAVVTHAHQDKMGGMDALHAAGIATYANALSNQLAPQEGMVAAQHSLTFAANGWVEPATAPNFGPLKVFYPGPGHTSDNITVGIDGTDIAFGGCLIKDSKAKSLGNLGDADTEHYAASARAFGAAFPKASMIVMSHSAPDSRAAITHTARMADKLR

CO/N=C(\C(=O)N[C@@H]1C(=O)N2C(C(=O)[O-])=C(C[N+]3(C)CCCC3)CS[C@H]12)c1csc(N)n1 [cefepime]
initial hydrolysis rate of 0.5 mM substrate by purified enzyme at varied ZnSO4 [1]: The hydrolysis rates of cephem (ceftazidime and cefepime) were found to be very sensitive to the ZnSO4 concentration

New Delhi metallo-β-lactamase-1 (NDM-1) (Klebsiella pneumoniae)
Km [2]: 63 µM | kcat [2]: 38.3 s⁻¹ | kcat/Km [2]: 610000 M⁻¹ s⁻¹ | Km [3]: 155 µM | kcat [3]: 106 s⁻¹ | kcat/Km [3]: 680000 M⁻¹ s⁻¹ | Km [4]: 43 µM | kcat [4]: 31.5 s⁻¹ | kcat/Km [4]: 740000 M⁻¹ s⁻¹ | Km [5]: 103 µM | kcat [5]: 27.5 s⁻¹ | kcat/Km [5]: 270000 M⁻¹ s⁻¹ | Km [6]: 69 µM | kcat [6]: 8.3 s⁻¹ | kcat/Km [6]: 120000 M⁻¹ s⁻¹ | Km [7]: 74 µM | kcat [7]: 60.9 s⁻¹ | kcat/Km [7]: 830000 M⁻¹ s⁻¹ | Km [8]: 42 µM | kcat [8]: 30.8 s⁻¹ | kcat/Km [8]: 730000 M⁻¹ s⁻¹
